Measurements: patent US20230056404A1 (priority 2019, published 2023)

B1: C1-Inhibitor: secreted protease inhibitor of the serpin superfamily, expressed as C1-Inh-myc-flag fusion (protein, UniProt P05155 23-500, looked up)
Plasma protease C1 inhibitor: NPNATSSSSQDPESLQDRGEGKVATTVISKMLFVEPILEVSSLPTTNSTTNSATKITANTTDEPTTQPTTEPTTQPTIQPTQPTTQLPTDSPTQPTTGSFCPGPVTLCSDLESHSTEAVLGDALVDFSLKLYHAFSAMKKVETNMAFSPFSIASLLTQVLLGAGENTKTNLESILSYPKDFTCVHQALKGFTTKGVTSVSQIFHSPDLAIRDTFVNASRTLYSSSPRVLSNNSDANLELINTWVAKNTNNKISRLLDSLPSDTRLVLLNAIYLSAKWKTTFDPKKTRMEPFHFKNSVIKVPMMNSKKYPVAHFIDQTLKAKVGQLQLSHNLSLVILVPQNLKHRLEDMEQALSPSVFKAIMEKLEMSKFQPTLLTLPRIKVTTSQDMLSIMEKLEFFDFSYDLNLCGLTEDPDLQVSAMQHQTVLELTETGVEAAAASAISVARTLLVFEVQQPFLFVLWDQQHKFPVFMGRVYDPRA
modifications: myc-flag tag
B2: Leader protein of Theiler's virus: Leader protein of Theiler's virus, SEQ ID NO: 1, enhancer protein (protein)
chain: MACKHGYPLMCPLCTALDKTSDGLFTLLFDNEWYPTDLLTVDLEDEVFYPDDPHMEWTDLPLIQDIEMEPQ
modifications: Cardiovirus Theiler's-like cardiovirus

Assays:
DRD1 = target: T1, DRD1 (Homo sapiens, UniProt P21728); assay: DRD1-Strep functional activity, cAMP-Glo assay; assay type: cell-based; details: HEK293 expressing DRD1-Strep
T1 construct: expressed in transfected cells; host or cells: HEK293
Protocol: In addition to the illustration of a correctly translocated GPCR such as DRD1, activity tests were performed using a DRD1-Strep fusion. The smaller strep-tag ensures that the interaction with the cytosolic located G-protein is intact, and a functional assay can be performed. Upon binding of dopamine, DRD1 releases the heterotrimeric G-protein to its Gα subunit and its Gβγ complex. In the resting state, Ga binds GDP but upon activation exchanges GTP for GDP. The Gα-GTP complex interacts with adenylate cyclase (AC), resulting in activation of AC activity and consequently, increasing cAMP levels. Changes in intracellular cAMP levels can be measured by standard cAMP assays. The academic and industry standard (EG5) was compared to the same target protein in co-expression with the L-protein of ECMV.
DRD1-Strep fusions were expressed in HEK293 cells. […] Protein was expressed for 48 h and DRD1 activity was analyzed using the cAMP-Glo™ assay (Promega) according to manufacturer's instructions. After 48 h, cells were washed with sterile PBS pH 7.2 and cells were incubated for 2 h with 20 μl of a 1 mM dopamine substrate solution (+dopamine; ON) or PBS pH 7.2 (−dopamine; OFF) at 37° C. […] Luminescence was measured using a plate reader (BioTek Synergy™ LX) and data were analyzed using standard analysis programs.

HEK293 cells [1] = assay type: cell-based, human
Sf9 cells = assay: DRD1-GFP expression, localization and toxicity in Sf9 cells; details: Sf9, 72 h
Protocol: DRD1-GFP fusions were expressed in Sf9 cells. Sf9 cells were seeded at 0.4×10^6 cells/well in a 6 well plate and incubated for 15 min at RT before transiently transfecting with either EG10 or EG8 using Cellfectin Reagent II (Thermofisher) according to manufactures instruction. DRD1-GFP expression was monitored after 72 h using fluorescence microscopy. Images were taken and analyzed by an Echo Revolve microscopy system.

[2] = Active C1-Inhibitor, MicroVue C1-Inhibitor Plus EIA; assay type: biochemical; details: presence vs absence of the enhancer protein, protein concentration normalized
Protocol: (§1) C1-Inh-Myc-Flag fusions were expressed in HEK293 cells. HEK293 cells were seeded at 1.75×10^6/ml cells in 100 ml shaking flask and incubated at 37° C., 5% CO2 and 120 rpm overnight before transiently transfecting with a vector encoding C1-Inh (OriGene; CAT #: RC203767) either alone, or in combination with EG11 by transfection of suspension cells using methods known in the art and/or disclosed herein. Supernatant containing the expressed recombinant C1-Inh protein was harvested after 72 h and supernatant was cleared by centrifugation followed by filtration ([…], nitrocellulose). To purify C1-Inh, Anti-Flag resin (ANTI-FLAG M2 Affinity Gel, Millipore Sigma) was equilibrated with 20 mM Tris pH 7.5, 50 mM NaCl prior to adding to the supernatant. Supernatant was incubated with the resin for 2 h at 4° C. with shaking. Resin was settled and washed with 5 CV 20 mM Tris pH 7.5, 50 mM NaCl and protein was eluted with 4 CV 20 mM Tris pH 7.5, 50 mM NaCl, 0.2 mg/ml 3× Flag Peptide. Purification was analyzed by SDS-PAGE (SurePAGE, Bis-Tris, GenScript) and protein containing fractions were pooled. Protein concentration was analyzed by BCA Assay (ThermoFisher) according to manufactures instructions and normalized C1-Inh was tested for activity using Immunoassay (MicroVue C1-Inhibitor Plus EIA, Quidel) following manufactures instructions.

HEK293 cells [3] = assay: C1-Inhibitor secretion and purification, total amount produced; assay type: cell-based, human; details: presence vs absence of the enhancer protein (L protein from EMCV, EG11), HEK293, 72 h
Protocol: as §1

CHO-K1 cells = assay: DRD1-GFP expression and membrane localization in CHO-K1 cells; details: CHO-K1, 48 h
Protocol: DRD1-GFP fusions proteins were expressed in CHO-K1 cells. CHO-K1 cells were seeded at 0.05×10^6 cells/well in a 24 well plate and incubated at 37° C. and 5% CO2 overnight before transiently transfecting with either EG10 or EG19 using Lipofectamine 3000 (Thermofisher) according to manufactures instructions. DRD1-GFP expression was monitored after 48 h using fluorescence microscopy. Images were taken and analyzed by an Echo Revolve microscopy system.

T1 sequence (P21728 with tags, fused parts or gaps): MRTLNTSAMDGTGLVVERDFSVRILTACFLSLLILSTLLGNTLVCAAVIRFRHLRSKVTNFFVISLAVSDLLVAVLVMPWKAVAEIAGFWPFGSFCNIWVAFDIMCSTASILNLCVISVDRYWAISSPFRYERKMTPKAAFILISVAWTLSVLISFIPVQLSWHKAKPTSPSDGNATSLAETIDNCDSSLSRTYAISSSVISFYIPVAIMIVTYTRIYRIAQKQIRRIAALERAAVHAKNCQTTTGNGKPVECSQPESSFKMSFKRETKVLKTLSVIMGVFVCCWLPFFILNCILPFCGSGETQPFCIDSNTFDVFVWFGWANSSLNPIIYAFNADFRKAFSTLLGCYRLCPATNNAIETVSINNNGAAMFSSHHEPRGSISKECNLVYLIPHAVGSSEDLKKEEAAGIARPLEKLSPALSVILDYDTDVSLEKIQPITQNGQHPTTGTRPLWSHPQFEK

| Molecule | activating signal, difference between OFF (-dopamine) and ON (+dopamine) luminescence (DRD1; 1 mM dopamine 2 h) | leaky activation, OFF signal compared to non-transfected cells (DRD1; absence of dopamine) | DRD1-GFP membrane association, enhancer on a separate vector (HEK293 cells [1]) | DRD1-GFP translocation into the outer membrane / inclusion bodies (HEK293 cells [1]) | DRD1-GFP translocation and localization (Sf9 cells) | increase of amount of active C1-Inhibitor [2] [%] | increase of total amount of produced C1-Inhibitor (HEK293 cells [3]) [%] | DRD1-GFP translocation and localization (CHO-K1 cells) |
| --- | --- | --- | --- | --- | --- | --- | --- | --- |
| Leader protein of ECMV: Leader protein of Encephalomyocarditis virus (EMCV), SEQ ID NO: 2, enhancer protein | strong activating signal | greatly reduced | ensures correct membrane association | sufficient to ensure a correct membrane incorporation of DRD1-GFP | improved expression and localization of the membrane protein | – | – | – |
| B1 | – | – | – | – | – | > 10 | > 30 | – |
| B2 | – | – | – | sufficient to ensure a correct membrane incorporation of DRD1-GFP | – | – | – | improved expression and localization of the membrane protein |
